In patent publication US20250376498A1, “FUSION PROTEINS COMPRISING AN IMPROVED GLP-1 RECEPTOR AGONIST AND USES THEREOF” (Guangzhou Innogen Pharmaceutical Group Co., Ltd., priority 2022, published 2025):
Entries after “also recorded” stand apart in the source; their conditions may differ.

Legend:
[1] = system: HMC3 microglial cells; experiment: Inflammatory factor expression in HMC3 microglial cells induced by Aβ1-42 oligomers (western blot); type: cell-based, human; conditions: for expression of TNF-α (protein) / expression of IL-6 (protein): 10 μM Aβ1-42 oligomers, 48 hours, YN-011 100 nM and 500 nM, combination 100 μM GABA and 100 nM YN-011; for expression of TNF-α (protein): GABA 10 µM and 100 μM; for expression of IL-6 (protein): GABA 100 μM; for inflammatory cytokine expression: Aβ1-42 oligomers (figure legends)
Method: Seed HMC3 human microglial cells into a 12-well plate. After overnight incubation at 37° C. with 5% CO2, treat the cells in each well with 10 μM Aβ1-42 oligomers alone or co-treated with 1, 10, or 100 μM GABA for 48 hours. Each drug treatment is performed in three replicate wells. After 48 hours of treatment, wash the cells with PBS and lyse the cells in RIPA buffer supplemented with protease inhibitor and phosphatase inhibitor on ice for 15 minutes. Centrifuge the cell lysate at 14,000 rpm for 30 minutes. Collect the supernatant, mix with 5× loading buffer supplemented with β-mercaptoethanol, and boil at 100° C. for 10 minutes. Separate denatured proteins by SDS-PAGE. Briefly, load 10 μg of protein onto precast mini polyacrylamide gels (SurePAGE, GenScript #M00657) and run at 120 V voltage. Subsequently, transfer the gel onto a PVDF membrane (0.22 μm pore size) at 200 mA for 90 minutes. After […], incubate the membrane at room temperature with primary antibodies diluted in 5% milk solution (TNF-α, Proteintech #60291-Ig; IL-6, Proteintech #21865-1-AP; HSP90, Proteintech #13171-1-AP) overnight at 4° C. After washing, incubate the membrane with corresponding secondary antibodies (Jackson Lab, 1:10000) at room temperature for 1 hour. After washing, visualize the antibody signals on the membrane using an ECL kit (Millipore #WBKLS0500) following the manufacturer's instructions. Calculate the relative protein levels normalized to the endogenous protein HSP90 using ImageJ.
Please refer to section 8.20 for the experimental procedure, but the drug treatment in this experiment is different from that in section 8.20. In this experiment, the drug treatment is as follows: treat the cells in each well with 10 μM Aβ1-42 oligomers alone or co-treated with 10, 100, or 500 nM YN-011 for 48 hours. Each drug treatment is performed in three replicate wells.
Please refer to section 8.20 for the experimental procedure, but the drug treatment in this experiment is different from that in section 8.20. In this experiment, the drug treatment is as follows: treat the cells in each well with 10 μM Aβ1-42 oligomers alone or co-treated with 100 μM GABA and/or 100 nM YN-011 for 48 hours. Each drug treatment is performed in three replicate wells.

[2] = system: db/db mice; experiment: Multiple subcutaneous injections in db/db mice (type 2 diabetes model); type: in vivo; conditions: for rate of fasting blood glucose reduction: 54 hours (day 21) after the 7th administration; for average rate of decline in random blood glucose levels: 72 hours after the 7th administration; for average rate of fasting blood glucose reduction: average over measurement time points
Method: The impact of multiple subcutaneous injections of YN-011 on reducing blood glucose levels was evaluated in db/db mice (Jackson Laboratories, 000642). The mice were kept under normal lighting conditions (12 hours light/12 hours dark) and at room temperature, with free access to food (normal rodent chow) and water. Db/db mice lack leptin receptors and spontaneously develop obesity, hyperglycemia, and pancreatic B-cell atrophy by 4 weeks of age.
Sixty affected db/db mice (33-45g) were divided into six groups of 10 mice each (5 males and 5 females) and administered 0 (PBS buffer control), 0.15, 0.3, 0.6, or 1.2 mg/kg of YN-011, or 0.3 mg/kg of Degludec via subcutaneous injection. Another group of wild-type mice (17-22g) with the same genetic background served as the normal control. The administration frequency was once every 3 days (Q3D), with a total of 9 doses administered over a period of 26 days. […] The duration of the hypoglycemic effect ranged from 34 to 72 hours within the dose range of 0.15-1.2 mg/kg.

[3] = system: NASH Rhesus monkeys; experiment: NASH Rhesus monkeys, body weight, lipids, glucose, food consumption, tolerability; type: in vivo
Method: The in vivo pharmacological study of YN-011 was conducted in NASH Rhesus monkeys. The evaluated clinical parameters included liver lipid content assessed by MRI-PDFF %, NAFLD Activity Score (NAS), liver fibrosis stage assessed by liver histology, body weight, body mass index (BMI), blood lipid profile, fructose metabolism, other biochemical parameters, and food consumption.
The selected Rhesus monkeys were 11-23 years old, which corresponds to 30-70 years in humans. All Rhesus monkeys were males, with weights ranging from 13.63 to 22.85 kg. They had abnormal lipid metabolism for more than 2 years, MRI-PDFF % ranging from 7.8% to 11.9%, NAS scores of 3 or higher, and fibrosis scores of 0-1c within 6 months. These animals clinically met the definition of NASH.
Fifteen Rhesus monkeys were divided into 3 groups, with 5 monkeys in each group. They received subcutaneous injections of 0 (solvent control, placebo control group), 0.050, or 0.150 mg/kg of YN-011 once a week for 13 weeks (QW). The 0.150 mg/kg YN-011 group received adaptive dosing (0.1 mg/kg for the first dose, followed by 0.150 mg/kg for the remaining 12 doses).

[4] = system: patients with T2DM; conditions: 1 mg YN-011, 24 weeks
[5] = human, in vivo
[6] = system: INS-1 cells; experiment: Insulin secretion from INS-1 cells; type: cell-based
Method: Natural GLP-1 stimulates insulin secretion from beta cells in a glucose-dependent manner. […] INS-1 cells were serum-starved and glucose-starved, then treated with different amounts of purified YN-011 in the presence of 0, 5, or 20 mM glucose as indicated.

[7] = db/db mice, after the last administration (9th dose, day 26)

For `NCCCC(=O)O` [GABA, γ-aminobutyric acid], the “expression of TNF-α (protein)” value [1] was “significantly reduce”, the “expression of IL-6 (protein)” value [1] was “significantly reduces” and the inflammatory cytokine expression [1] was “reduction of inflammatory cytokine expression”.

B1: YN-011: GLP-1 fusion protein of SEQ ID NO: 7: GLP-1 (A8G, G22E, R36G), linker peptide and IgG2/Fc domain (C222S, A330S, P331S) (protein)
chain: HGEGTFTSDVSSYLEEQAAKEFIAWLVKGGGSSGAPPPSGGGGSERKSCVECPPCPAPPVAGPSVFLFPPKPKDTLMISRTPEVTCVVVDVSHEDPEVQFNWYVDGVEVHNAKTKPREEQFNSTFRVVSVLTVVHQDWLNGKEYKCKVSNKGLPSSIEKTISKTKGQPREPQVYTLPPSREEMTKNQVSLTCLVKGFYPSDIAVEWESNGQPENNYKTTPPMLDSDGSFFLYSKLTVDKSRWQQGNVFSCSVMHEALHNHYTQKSLSLSPG
With B1 the “rate of fasting blood glucose reduction” value ([2]; db/db mice, 0.15 mg/kg Q3D sc) was 46.8%, the “average rate of decline in random blood glucose levels” value (from here on “average rate of decline”) ([2]; db/db mice, 0.15 mg/kg Q3D sc) was 31.8% and the “average rate of fasting blood glucose reduction” value ([2]; db/db mice, 0.15 mg/kg Q3D sc) was 55.0%. The “rate of fasting blood glucose reduction” value ([2]; db/db mice, 0.3 mg/kg Q3D sc) was 55.6%, the “average rate of decline” value ([2]; db/db mice, 0.3 mg/kg Q3D sc) was 46.2% and the “average rate of fasting blood glucose reduction” value ([2]; db/db mice, 0.3 mg/kg Q3D sc) was 61.8%. The “serum free fatty acid levels” value ([2]; db/db mice, 0.6 mg/kg) was “significantly reduced”, the “rate of fasting blood glucose reduction” value ([2]; db/db mice, 0.6 mg/kg Q3D sc) was 59.5% and the “average rate of decline” value ([2]; db/db mice, 0.6 mg/kg Q3D sc) was 50.8%. For the same molecule, the “average rate of fasting blood glucose reduction” value ([2]; db/db mice, 0.6 mg/kg Q3D sc) was 63.7%, the perirenal fat content ([2]; db/db mice, 1.2 mg/kg) was “significantly reduced” and the “rate of fasting blood glucose reduction” value ([2]; db/db mice, 1.2 mg/kg Q3D sc) was 64.7%. For the same molecule, the “average rate of decline” value ([2]; db/db mice, 1.2 mg/kg Q3D sc) was 54.3%, the “average rate of fasting blood glucose reduction” value ([2]; db/db mice, 1.2 mg/kg Q3D sc) was 66.1% and the serum fructosamine levels ([2]; db/db mice, 1.2 mg/kg sc) was “significant reduction”. For the same molecule, the “time the hypoglycemic effect (fasting blood glucose) can be maintained” value ([2]; db/db mice, 0.15, 0.3, 0.6 and 1.2 mg/kg every 3 days) was “at least 54 hours”, the scapular fat content ([2]; db/db mice, 0.15, 0.3 and 0.6 mg/kg) was “significantly reduced” and the serum fructosamine levels ([2]; db/db mice, 0.15-0.6 mg/kg sc) was “decreasing trend”. The “subcutaneous fat content, inguinal fat content and their ratios to body weight” value ([2]; db/db mice, 0.3, 0.6 and 1.2 mg/kg) was “significantly reduced”, the “random and fasting body weights” value ([2]; db/db mice, 0.3, 0.6 and 1.2 mg/kg (P<0.05, P<0.01, P<0.001)) was “significant decreases” and the “insulin secretion (serum insulin levels)” value ([2]; db/db mice, 3 hours after administration) was “significantly promoted insulin secretion”. For the same molecule, the “fasting blood glucose levels versus model control group” value ([2]; db/db mice, Q3D sc, YN-011 all dose groups (P<0.001), Degludec 0.3 mg/kg) was “significant decrease; also recorded: significantly reduced fasting blood glucose levels”, the “epididymal fat content and its ratio to body weight” value ([2]; db/db mice, YN-011 treatment groups vs solvent control) was “significant decrease” and the “time the hypoglycemic effect was sustained” value ([2]; db/db mice, after repeated administration) was 72 h. For the same molecule, the “fasting serum insulin levels” value [2, 7] was “dose-dependently increased”, the pancreatic-cell mass [2, 7] was “significant increase” and the “time after administration at which therapeutic effect was observed” value ([2]; db/db mice, first administration, dose as low as 0.15 mg/kg) was 3 h. The “random plasma glucose (RPG) concentration” value ([2]; db/db mice, following the first subcutaneous administration, 0.15-1.2 mg/kg) was “significantly reduced”, the serum triglyceride levels ([2]; db/db mice, multiple sc injections vs solvent control) was “significantly decreased” and the “RPG levels versus control group” value ([2]; db/db mice, repeated administration, all dose groups and time points except 0.15 mg/kg after the 4th administration (P=0.07)) was “significantly lower”. The food consumption [3] was “dose-dependent reduction”, the “high-density lipoprotein cholesterol (HDL-c) compared to baseline” value [3] was “decreasing trend” and the “plasma fasting plasma glucose (FPG) levels, YN-011 vs placebo” value [3] was “no significant differences”. For the same molecule, the “reduction of plasma fructosamine (FRA)” value ([3]; 150 μg/kg, after 12 weeks of treatment) was 4.3%, the adverse reactions ([3]; 0.050 or 0.150 mg/kg sc QW, 13 weeks) was “No significant adverse reactions” and the “body weight and BMI compared to baseline” value ([3]; Day 7-Day 84) was “significant decrease”. The “serum LDL-c, total cholesterol (TC) and total triglycerides (TG)” value ([3]; various time points during treatment) was “significantly reduced”, the “reduction in HbA1c levels” value [4] was 1.73% and the “half-life compared with SUPA-1, Dulaglutide and Semaglutide” value [5] was “significantly longer half-life than Dulaglutide and Semaglutide”. For the same molecule, the “plasma concentration steady state” value [5] was “reached a steady state after the fourth dose”, the “median Tmax” value ([5]; sc) was 60 to 84 h and the “insulin secretion from beta cells” value ([6]; absence of glucose) was “did not stimulate insulin secretion”. The “insulin secretion from beta cells” value ([6]; presence of 5 mM or 20 mM glucose) was “dose-dependently stimulated insulin secretion”, the “expression of TNF-α (protein)” value [1] was “significantly reduce” and the “expression of IL-6 (protein)” value [1] was “significantly reduce”. The inflammatory cytokine expression [1] was “reduction of inflammatory cytokine expression”.
